Experimental data taken from patent EP3470426A1.

Target: T1, mouse CD137-Fc chimeric protein (mouse), P20334
T1 chain: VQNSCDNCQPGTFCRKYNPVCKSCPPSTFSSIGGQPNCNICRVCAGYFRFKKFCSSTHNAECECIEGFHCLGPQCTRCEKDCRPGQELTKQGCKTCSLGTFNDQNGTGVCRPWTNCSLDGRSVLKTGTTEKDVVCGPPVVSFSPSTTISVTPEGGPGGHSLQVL
Assay: SPR, CD137-Fc captured, binder injected
Conditions: remark: other sources report otherwise

B1: PRO963 (protein)
chain: DIQMTQSPSSLSASVGDRVTITCQASQSINDYLAWYQQKPGKAPKLLIYKASTLASGVPSRFSGSGSGTDFTLTISSLQPEDFATYYCQQGYIITDIDNVFGTGTKVTVLGGGGGSQVQLQESGPGLVKPSETLSLTCKVSGFSFSNSYWICWIRQPPGKGLEWIGCTFVGSSDSTYYANWAKGRVTISVDSSKNQFSLKLSSVTAADTAVYYCARHPSDAVYGYANNLWGQGTLVTVSSGGGGSGGGGSGGGGSGGGGSIQMTQSPSSLSASVGDRVTITCQASQSINNVLAWYQQKPGKAPKLLIYRASTLASGVPSRFSGSGSGTDFTLTISSLQPEDFATYYCQSSYGNYGDFGTGTKVTVLGGGGGSQVQLQESGPGLVKPSETLSLTCKVSGFSFSSGYDMCWIRQPPGKGLEWIGCVVAGSVDITYYASWAKGRVTISVDSSKNQFSLKLSSVTAADTAVYYCARKDAYSDAFNLWGQGTLVTVSSGGGGSGGGGSIQMTQSPSSLSASVGDRVTITCQSSESVYSNNQLSWYQQKPGQPPKLLIYDASDLASGVPSRFSGSGSGTDFTLTISSLQPEDFATYYCAGGFSSSSDTAFGGGTKLTVLGGGGGSGGGGSGGGGSGGGGSEVQLVESGGGLVQPGGSLRLSCAASGFSLSSNAMGWVRQAPGKGLEYIGIISVGGFTYYASWAKGRFTISRDNSKNTVYLQMNSLRAEDTATYFCARDRHGGDSSGAFYLWGQGTLVTVSS
  Kd: 170 nM
  koff: 0.059 s⁻¹
  kon: 350000 M⁻¹ s⁻¹
